Experimental data reported in a protein production outcome set (Wang et al. 2014).

Test: label from the status in PepcDB records
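Further: failed if final PepcDB status was selected cloned or expressed and not failed if soluble or beyond.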

| Sequence | protein production |
| --- | --- |
| MPSLGEAPQDLQRSQERRRIERIFAQGGKGVASPHRFPGPLPMLQNIPTHVIAGPLGAGKTSLIRHLLSQRPAAERWAVLINEFGQIGLDAALLTRDEDGIALGEVAGGCLCCVNGAPFQVGLGRLLRKARPDRLLIEPSGLGHPAQLLKQLNEAPWKGVLAVQPCVLVLDAQALAAGKPLPRAQQDALSSAGLLVLNKDELLSDSDRLRVLEQLPDLPLFWTRHAALPLAELPGLGASAEAALEQSDIPQGLAQLPAVWSDPTLPICLSQSQEDGWSIGWRWHPSQQFDLVRVEHWLQNLDWRRAKLVLHSDQGWRSGNGLDNSPLNWLPSEWRRDSRLELIFSSPQDIAVLQASLDACRLLEHHHHHH | failed |
| MSLDALTTLPIKKHTALLNRFPETRFVTQLAKKRASWIVFGHYLTPAQFEDMDFFTNRFNAILDMWKVGRYEVALMDGELTSEHETILKALELDYARIQDVPDLTKPGLIVLDMDSTAIQIECIDEIAKLAGVGEEVAEVTERAMQGELDFEQSLRLRVSKLKDAPEQILSQVRETLPLMPELPELVATLHAFGWKVAIASGGFTYFSDYLKEQLSLDYAQSNTLEIVSGKLTGQVLGEVVSAQTKADILLTLAQQYDVEIHNTVAVGDGANDLVMMAAAGLGVAYHAKPKVEAKAQTAVRFAGLGGVVCILSAALVAQQKLSWKSKEGHHHHHH | not failed |
| MGFTQNSVYFLNVSEALATPQDKLHTVRLFGTVAADGLTMLDGAPGVRFRLEDKDNTSKTVWVLYKGAVPDTFKPGVEVIIEGGLAPGEDTFKARTLMTKCPLEHHHHHH | not failed |
| PLPPPRALTLAAVTPRTVHLTWQPSAGATHYLVRCSPASPKGEEEEREVQVGRPEVLLDGLEPGRDYEVSVQSLRGPEGSEARGIRARTPT | not failed |
| MIPIHPVGGSQTPASSTAAAGTGDAVTSVFLQPGRISLPASPPLSLYVHVPWCVRKCPYCDFNSHAEPEAGIPEDRFLAAIRQDLEAALPMVWGRRVHTIFIGGGTPSLLSARGLDTLLSDIRMLLPVDADAEITMEANPGTFEAERFRSYRASGVNRLSIGIQSFNDTHLQALGRIHSAAEARAAIDIARAHFDNINLDLMFALPGQTLAECEADVEAALSFGTSHVSLYHLTLEPNTYFAKHPPALPDDDTAFAMQDWIHARLAAAGYEHYEVSAYARPGKRCKHNLNYWQFGDYLGIGPGAHGKLSFPHRVIRDMRHKHPETYLRQAETAGGATVVQEQREVDAADLPFEFMLNALRLTDGFPVTLFQERTGLPLRGIERELDAAERRGLLVHDHATIRPTELGQRFLNDLQALFLADDEN | failed |
| MVSFVFNGGALWSVLLLALRKRRFNVDPAMMAMTIAIYAYCAANLVASIVNSAIARDALHLIPLVTFLFFPISYSTWSITQKTTLVRIIVLSSMAACFVALLLAVFQQHWLGMRAEGGAGNAIVFAEVLCLAVLVCVAGALSDIERHRIALLCAALGGTIAIIYSGTRIVWLALLIAGIAVLLINQHRLKGRNAIRLLVLLLAAGAVIAAVGFQTISGRVDFLRSDLDALAVNGDHTTAIGLRLAVWDIGLKAFREMPLFGHGVGATQALIKQGFHDQFGMDAGFNHFHNGFLTALVQAGLLGAVTLAAMFVVAARNAAVVLRNSTDPIERFGATMIVIMVITYLTSGMTGILIGHDILDSVLMVFLVSGTYLASGRQAPLPQDQALPPETEERAPAPVAEDALLPGMENRALRLTQ | failed |
| MNNSTQTAPDSGNTLVISNVHLLLSDGWKNDTCLQVTEGVITAIGQDVVQGNSQVIDAGGGYLLPGIIDLHGDAFERHITPRAGTLFPLDLALAANDASLVANGITTFYYSITDGFEPGPRSRETVRKLLLALEELMPRFSCQAKVHIRHEKVNTEGHDELVDWLRNGRVHMLSLNDHLPELDNERAVKRYLAGLQRRVTMDDDATQEFLSSLQGRRELGEEQTRALASLALASGVSLSSHDDHGLEDVARNVQLGTAIAEFPMDAQTALESRKSGISVLMGAPNLVRGGSHVGAISVRDAIAEGLVDILCSDYHYPSLFTAPFVTARHDLLPLADAWKMVSENPARAAGMGDRKGQIAPGYDADLLLLSELDGSPLSLQATFVGGTPVYQREGQWQKQPLAAEAGGVVV | failed |
| KVILYARVSSSTQKDELVNQVKYLEEQVKEYDLVITDIGSGLNMKRKGFLKLLRMILNNEVSRVVVAYPDRLVRVGFEILEEVCKAHNCEIVVLNQEDKEEELVEDLMSALVSFSGKLYGMRSHEYEKVKKCAEELKNWKI | not failed |
| MSVSIILMGLFVGALVGLTGVGGAALLTPLLIVLGINPSIAVGTDLVYNSITKLFGVASHWRQKTINFKLVKYLAIGSIPSASLAIGILHLFPAFHQHQEEIIKHALGYVLTLVAISIIVRLFLDRKLRPNRWQLMPLENKRALTILIGVVFGFIVGLTSIGSGSLFAIAMIYLFNMKASQIVGTDIAHAFLLVTAAGILNASFGSVDYMLAANLLLGSIPGVLIGSHLSPRFSPRPLQFIMASIILVSGLKLI | failed |
| MNNSAFTFQTLHPDTIMDALFEHGIRVDSGLTPLNSYENRVYQFQDEDRRRFVVKFYRPERWTADQILEEHQFALQLVNDEVPVAAPVAFNGQTLLNHQGFYFAVFPSVGGRQFEADNIDQMEAVGRYLGRMHQTGRKQLFIHRPTIGLNEYLIEPRKLFEDATLIPSGLKAAFLKATDELIAAVTAHWREDFTVLRLHGDCHAGNILWRDGPMFVDLDDARNGPAVQDLWMLLNGDKAEQRMQLETIIEAYEEFSEFDTAEIGLIEPLRAMRLVYYLAWLMRRWADPAFPKNFPWLTGEDYWLRQTATFIEQAKVLQEPPLQLTPMY | not failed |
| MAYRKQLTRLKAPYLKRILLDPGRVEDWEKYPWNLPLFRGREFELEFTAPITIIVGENGTGKSTLLEAIGALAGYDEAGGGKGYMPVDHSRAIDKSGAALADNFRCHWLPKVTAGWFFRAESFYSVARYLDEAARESGATPPDFLSWSHGEGFIRFFEERCRRQGIYILDEPESALSPSRQIELLKMLRRMDQSGTAQVIMATHSPLLMACPGARLFRISRFGLEPADFRDTDHFRMLRDFSNDPDGFLAEALYEDEA | failed |
| MAIRRCYIAQNPKSSCRFNCVRERFEDLRGVPCLVYEGETRDWINAALFLEDENESEDRKRFVLHTSHSALLYMEYDLTSNADCTVLELARCTDSSILYYTKLHGSSFNKLAIISGNAFGELLVWQTQFPTESDPKSVMKTYPLLLRIEAHNGVIHSIEFDLQSQLLVTTSDDRSVKFWNIQKSGDWTTAEIKPMFSCYGHSSRVMCVVILKIDDRTFVASGGEDSYVCIWSSSGELILKRRQQFGAPIWRLGFSQDAEILYSTSSTGNLVGQNLKEVLNRPKIESTILSSLGDANEFVRNLKFVNNEIIVGLSSLNRLYYTRISPDSSHENKWLMVNDFPSYKRTVLEVFDDIIATCGHRRITLHRDRYLVSDNLGYCLLLQTHQLHIESHIALFNNREPWITAALLISEQYLLLGNREGHVMLYCRSSASDDFQLKDSIRYLHGKMGSNFFKLLSLNADNAHVMSGGHEAFLKYLSVRFSDSTLRVSQREGIPLAWVEASPSDDLILGFNDNHIVAWSRRNDILLQLACGGGHRCWDFRLSDGDSQLSIAYVKQKRVYFYRNSLYNAVDNRLKDIEPNNWHVRNCNTLRLITPRNQSDPFILSAGDDNIIKVTQVTNDSLSQRAEMHSHISTVRSLQAIPYKSNGGDSSTWLVFSVGGRSQLCISQLSIDASNKCWISEISSHTLHNVAASKTSTIEARLMAIDVVQHSDGDLFSIYVAGGDGNISHYIWELETPNQLDLKHFVDIQRCPLGIQWIASKGMLLVSTTNGEVYGFDRTLETTYFQLQLHVTGINTIDIYVDRHLLHILSGGDDESIKYTVLNLNNNNVEQKIEYLGLHNAQVNALAIHCPTKSVAASELFAYTCSIDRQIYRIDLSTHKYKRVGYTCIADVKGMLLDEHQRMYFYGCGLQTMSISNIL | failed |
| MKGKLQHIHPLGMSIILGTLFARFATSMSIPFLAIYLTTVKGVSAGMTGAIIGTSALVGVFASFIGGNLSDRFGRKTIMLWSMIVWIFVFIGFSLADHVLSFFLLNALNGLCRSFFEPTSRALLSDLTKPEYRLLVYNLRYGAINVGVAIGPIVGLQIGSAKSTIPFLVAAGVYILYTAILAFQFKKYPMEKKKVSTEKPVTMLNAMRILRKDIVFLVALVGIILSNCGFSHLTTTVSQYFANAHIFEDGVKLFSYMLALNAIVVVIIQYPVIQMCKKYTPLTSIMVGTLFVSGGLFGFGIVESMLGAAVCTIIFTIGEVLMFSMTDVFIDDIAVAHLKGTYFGAMGFSGIGAVIGPWFGGVLLDYYGYQNGFAVFSALAIFSTVAFPVLLVTKGLSKKRYDRNSNIEMHAK | failed |
